System: Oxidatively competent cells
Assay: Antimycin A-induced cell death in oxidatively competent cells, SYTOX assay after 4 hours
Assay type: cell-based, rat-human hybrid (GCL1)
Conditions: lactoferrin alone at 100 μg/ml
Excerpt: The GCL1 (WiF-B) liver cell line is a hybrid originating from the fusion of rat hepatoma cells (fao) and human fibroblasts (W138). Cassio et al. (1991) J. Cell Biol. 115:1397-1408; Shanks et al. (1994) J. Cell Science 107:813-825. […] Ihrke et al. 1993, J. Cell Biol. 123:1761-1775. At greater than 80% confluence, more than 80% of the cells participate in forming one or more phaselucent, spherical structures that are located between cells, termed bile canicular-like spaces. In contrast to the majority of cell lines maintained in culture which are fermentative, GCL1 cells, when at their maximal density and polarity, are highly oxidative (i.e., they can be readily killed by inhibitors of oxidative phosphorylation or electron transport uncouplers). […] These cells are amenable to use in high throughput screening (HTS) technology.
Energetically competent cells are seeded onto 96-well plates at 1×10^3/well or 2.5×10^3/well as passage 15. The cells are grown in DMEM with 10% FBS and 1.5 g/L sodium bicarbonate for 24 or 48 hours to reach 85% confluence. The cells are washed once with HBSS and then 100 μl of HBSS containing different concentration of AA (Sigma Chemical Co., Cat # A 8674) is added to the cells. AA is dissolved in DMSO to make a stock solution of 50 mM, then diluted with HBSS to 100, 50, 25, 12.5, 6.25, 3.125, and 1.56 μM for dose-response curves. […]

B1: lactoferrin: Bovine lactoferrin, iron-binding glycoprotein of milk (Sigma cat. # L9507 or DMV International Nutritionals) (protein, UniProt P24627 20-708, looked up)
Lactotransferrin: APRKNVRWCTISQPEWFKCRRWQWRMKKLGAPSITCVRRAFALECIRAIAEKKADAVTLDGGMVFEAGRDPYKLRPVAAEIYGTKESPQTHYYAVAVVKKGSNFQLDQLQGRKSCHTGLGRSAGWIIPMGILRPYLSWTESLEPLQGAVAKFFSASCVPCIDRQAYPNLCQLCKGEGENQCACSSREPYFGYSGAFKCLQDGAGDVAFVKETTVFENLPEKADRDQYELLCLNNSRAPVDAFKECHLAQVPSHAVVARSVDGKEDLIWKLLSKAQEKFGKNKSRSFQLFGSPPGQRDLLFKDSALGFLRIPSKVDSALYLGSRYLTTLKNLRETAEEVKARYTRVVWCAVGPEEQKKCQQWSQQSGQNVTCATASTTDDCIVLVLKGEADALNLDGGYIYTAGKCGLVPVLAENRKSSKHSSLDCVLRPTEGYLAVAVVKKANEGLTWNSLKDKKSCHTAVDRTAGWNIPMGLIVNQTGSCAFDEFFSQSCAPGADPKSRLCALCAGDDQGLDKCVPNSKEKYYGYTGAFRCLAEDVGDVAFVKNDTVWENTNGESTADWAKNLNREDFRLLCLDGTRKPVTEAQSCHLAVAPNHAVVSRSDRAAHVKQVLLHQQALFGKNGKNCPDKFCLFKSETKNLLFNDNTECLAKLGGRPTYEEYLGTEYVTAIANLKKCSTSPLLEACAFLTR
Question: With B1 as the molecule, how does the cell death (Example 8, experiment with (+/−)-alpha tocopherol) read?
Answer: 85.9%

Question: And the cell death (Example 8, experiment with alpha-tocopherol Type V)?
Answer: 96%

Source: patent publication US6426362B1, “Formulations of tocopherols and methods of making and using them” (Galileo Laboratories, Inc., priority 1999, dated 2002)
